According to the nanobody polyreactivity screen of Harvey et al. (2022):

Experiment: yeast display, Sf9 membrane polyspecificity reagent, FACS + sequencing; frameworks hold sequencing errors
Procedure, shortened: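 Using colony PCR, genes from sorted yeast display clones were amplified, then sequenced on MiSeq at 2 × 250 and filtered by CDR length. The clones had been stained with 10% biotinylated, detergent-solubilized Sf9 membrane reagent for 1 hour at 4 °C and sorted by FACS into low and high (top ~1%) gates on anti-HA and streptavidin fluorescence. Polyreactivity labels come from the gate of origin.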

| Sequence | polyreactivity (PSR sort gate) |
| --- | --- |
| QVQLVESGGGLVKAVGSLRLSCAASGINLIRYVMGLYRQAPGKERELVAAISGSGGRTYYADSVKGRFTISRDNAKTTVDLQMNSLKPEDTAVYYCAAVSFRTTHGEYDYWGQGTQVTVSS | low polyreactivity |
| QVQLVESGGGLVQAGGSLRLSCAASGSIFQRYTMGWYRQAPGKERELVAAITSRSGRTYYADSVKGRFTISRDNAKNTVYLQMNSLKPEDTAVYYCATVPYDQTRGYKYDYWGQGTQVTVSS | high polyreactivity |
| QVQLVESGGGLVQAGGSLRLSCADSGITFAPYAMGWSRQAPGKERELVATITWSGGSTYYADSVKGRFTISRDNAKNTVYLQMNSLKPEDTAVYYCAAYNDTVPSAAHIYESWGQGTQVTVSS | low polyreactivity |
| QVQLVESGGGLVQAGGSLRLSCAASGSTFFRYAMGWYRQAPGKERELVAAITSSGGRTYYADSVKGRFTISRDNAKNTVYLQMNSLKPEDTAVYYCADASGTSPYDYWGQGTQVTVSS | high polyreactivity |
| QVQLVESGGGLVQAGGSLRLSCAASGSTFGYYTMGWYRQEPGKERELVAAITWSGGSTYFEDSVKGRFTISRDNAKNTVYLQMNSLKPEDTAVYYCAADYYWTPFGYWGQGTLVTVSS | low polyreactivity |
| QVQLLESGGGLVKAGGSLRLSCPASGIIFYEYVMGWYRQAPGKERELVAAINRSGGSKYYADSVKGRFTISRDNAKNTVYLQMNSLKPEDTAVYYCAAKPYYFYGMDYWGQGTQVTVSS | high polyreactivity |
| QVQLVESGGRLVQAGGSLRLSCAASGRTFRSYAMGWYRPAPGKEWELVAAIRTSDGITYYADSVKGRFTISRDNAKNTVDLQMNSLQPEDTAVYYCAAENWYKYDYWGQGTQVTVSS | low polyreactivity |
| QVQLVESGGGLVQAGGSLRLSCAASGRTFEKYVMGWYRQAPGKERELVASISKRGGSTYYADSVKGRFTISRDNAKNTVYLQMNSLKPEDTAVYYCNKDSRASPYGYWGQGTQVTVSS | high polyreactivity |
| QVPLVESGGGLVQAGGSLRLSCAASGRIFYFNDMGWYRQAPGKERELVAAISRSGGSTYYADSVKGRFTISRDNAKNTVYLQMNSLKPEDTAVYYCAAGRDTWPSTYYYWGQGTQVTVSS | low polyreactivity |
| QVQLVESGGGLVQAGGSLRLICAASGSTFNVYAMGWYIPAPGKERELVASIRTSGTRTYYADSVKGRFTISRDNAKNNVYLQMNSLKPEDTAVYYCNARYYSNLRRHGGYWGQGTQVTVSS | high polyreactivity |
| QVQLVESGGGLVQAGGSLRLSCAASGFIFRFNAMGWYRQAPGKERELVAAITYRGITYYADSVKGRFTISRDNAKNTVYLQMNSLKPEDTAVYYCAKRTSARGLYGVYFGRYEYWGQGTQVTVSS | high polyreactivity |
| QVQLVESGGGLVQAGGSLRLSCAASGCIFRYYAMGWYRQAPGKERELVAAISWGGGSTYYADSVKGRCTISRDNAKNTVYLQINSLKPEDTAVYYCNTYTYAWSRSKRGYWGQGTQVTVSS | high polyreactivity |
| QVQLVESVGGLVQAGGSLRISCAASGSIFAINAMGWYRQAPVKERELVAAIRTAGRTYYADSVKGRFTISRDNAKNTVYLQMNSLKPEDSSVYDCNDGGKWIGSDYWGQGTQVTVSS | high polyreactivity |
| QVQLQESGGGLVQAGGSLRLSCAASGYISHADEMGWYRQAPGKEHELVASISNGGSTNYADSVKGRFTISRDNAKNTLYLQMNSLKSEDTAVNYCAAWTGQVDIHYYWGHGTQVTVSS | low polyreactivity |
| QVQLQESGGGLVEAGGTLRLSCAASGSYSADEDMGWYRQAQGKEREFVAGISVGGNTNYADSVKGRFTSSRENAKNSLFLQINSLKPEDTAVYYCAVLPDVYDALDYWAQGTQVTVSS | high polyreactivity |
| QVQLVESGGGLVQAGGSLRLSCAASGRTFQQNAMGWYRQAPGKERELVATIRNGGNTNYADSVKGRFTISRDNAKNTVYLQLNSLKPEDTAVYYSAARVYTHGLWGYNYWGQGTQVTVSS | high polyreactivity |
| QVQLVESGGGLVQAGGSLRLSCAASGSILYPYAMGWYRQAPGKEREFVAAITYGGGRTYYADSVKGRFTISRDNEKNTVYLHMNSLKPEDTAVYYCAARYTYSYPLFGSWGQGTQVTVSS | high polyreactivity |
| QVQLVESAVGLVQAGGSRRLSCAASGRTFDSNAMGWYRQAPGKEREFVAAISWSGGSTYYADSVKGRFTISRDNAKNTVYLQMNSLKREETAVYYCNRLGRHAPATRYGYWGLGTQVTVSS | high polyreactivity |
| QVQLVESGGGLVQAGGSLRLSCAASGSTYPYYAMGWYRQAPGKERELVAAITSSTGRTYYADAVKGRFTISRDNAKNTVYLQMNSLKPEDSAVYYCATYSTSVAYHLYYWGQGTQVTVSS | low polyreactivity |
| QVQLEESGGGLVQAGGSLRLSCAASGSIFRNYAIGWYRQAPGKEREFVAANTYSGGSTHYADSVKGRFTISRDNAKNTVYLQMNSLKPEDTAVYYCAADYYWRVHYGYWGQGTQVTVSS | high polyreactivity |
| QVQLVESGGGLVQAGGSLRLSCAASGSIFSVYSMGWYRQAPGKERELVADITRSGARTYYADSVKGRFTISRDNAKNTVYFPMNSLKPEDTAVYYCAADDPCYDQVEYWGQGTQVTVSS | high polyreactivity |
| QVQLVESGGGLVQAGGSLRLSCAASGRIFEWYAMGWYRQAPGKEREFVARITIGGRTYYADSVKGRFTISRDNAKNTVYFQMNSVKREDTAVYYCNAPYAWARPYIVSSTYDYWGQGTQVTVSS | high polyreactivity |

| Sequence | polyreactivity (PSR sort gate) |
| --- | --- |
| QVQLVESGGGLVQAGGSLRLSCAASGHIFFYYTMGWYRQAPGKERELVAGITIGGSTNYADSVKGRFTISRDNAKNTVYLQMNSVKPEDTAVYYCKVVKYVDIYSYWEYYYWGQGTQVTVSS | low polyreactivity |
| QVQLVESGGGLVQAGGSLRLSCAASGRIFYDYAMGGSRQAPGKERELVAAISKGGGSTYYADSVKGRFTISRDNAKNTVYLQMYSLKPEDTAVYYCAASSSLTTDTLYDYWGQGTQVTVSS | low polyreactivity |
| QVQIVESGGGLVQAGGSLRLSCAASGFIFDYNAMGWYRQAPGKERELVAAISYSGGRTSYADSVKGRFTISRDNAKNTVYLQMNSLKPEDTAVYYCAKDNYVDFGGYYYPRMYYWGQGTQVTVSS | high polyreactivity |
| QVQLVESGGCLVQAGGSLRLSCAASGLTFSWYAMGWYRQAPGKERELVAAISTRGGRTYYADSVKGRFTISRDNAKNTVYLQMNSLKPEDTAVYYCAAGVSYRYLWLVDYWGQGTQVTVSS | high polyreactivity |
| QVQLVESGGGLVQAGGSLRLSCAASGSIFRAYAMGWYRQAPGKERELVAAINWTDGSTYYADSVKGRFTISRDKAKNTVYLQMNSLKPEDTAVYYCAKDSIARHNYWGQGTQVTVSS | low polyreactivity |
| QVQLVESGGGLVQAGGSLRLSCAASGFTFVGNAMGWSRQAPGKERELVATITSGGNTKYADSVKGRFTISRDNAKNTVYLQMHSLKPEDTAVYYCAAAKYNYRRFNYWGQGTQVTVSS | low polyreactivity |
| QVQLVESRGALVQAGGSLRLSCAASGSIFSRYAMGWYRQAPGKERELVAAIRWTDSSTYYADSVKGRFTISRDHAKNTVYLQMNSLKPEDTAVYDCAKVYEGGSNKVDYWGQGTQVTVSS | low polyreactivity |
| QVHLVESGGGIVQAGGSLRLSCAASGSIFGKNVMGWYRHAPGKERQLVAAITSGASTYYADSVKGRFTISRDNAKNTVYLQMNSLKPEDTPVYYCAARRWRKYYSGYNYWGQGTQVTVSS | high polyreactivity |
| QVQLVESGGGLVQAGGSLRLSCAASGSTFPTNAMGWYRQAPGKERELVATITSTGSTKYADSVKGRFTISRDNAKNTVYLQMNSLKPEDTAVYYCAADEYAYASRFYWALIHDYWGQGTQVTVSS | low polyreactivity |
| QVQLEESGGGLVQAGGSLRLSCAASGRTFSRNAMGWYRQAPGKERELVAAITKGGGSTYYADSVKGRFTISRDNAKNTVYLQMNSLKPEDTAVYYCAARKRPPYGYGYWGQGTQVTVSS | high polyreactivity |
| QVQLVESGGGLVQAGGSLRLSCAASGSIFYHYAMGWYRQAPGKEREFVAAITRRGTSTYYADSVKGRFTISRDNAKNTVYLQMNSLKPEDTAVYYCAARYGPNMDYCGQGTQVTVSS | high polyreactivity |
| QDQLVESGGGLVQAGGSLRLSCAASGGTFWAYAMGWYRQAPGKERENVAAIRRSGRTYYADSVKGRITISRDNAKNTVYLQMNRLKPEDTAVDYCAKYGPTPGTLRDDYWGQGTQVTVSS | high polyreactivity |
| QVQLVESGGGLVQAGGSLRLSCAASGRTFYRNVMGWYRQEPGKEREMVASIRTSGGSTYYADSVKGRFTISRDNAKNTVYLQMNSQKPEDTAVYYCATRVFVYPYRRYSHYDYWGLGTQVTVSS | high polyreactivity |
| QVQLVESGGGLVQAGFSLRLSCAASGSILGSYVMGWCRQAPGKESELVAASSYSTSATYYADSVKGRFTISRDNAKNTVYLQMNSLKPEDPAVYYCNADLGSWYTWYDDWGQGTQVTVSS | high polyreactivity |
| QVQLVESGGGLVQAGGSLRLSCAASGRILRYYAMGWYRQAPGKERELVASITSGGSTYYADSVKGRFTISRDNAKNTVSLQMNSLKPEDTAVYYCAARNSYRVDLSYYAYDYWGQGTQVTVSS | high polyreactivity |
| QVQLVESGGGLVQAGGSLRLSCAASGSTFRAYAMRWYRQAPGKETELVAAISSSGGSTYYADSVKGRFTISRDNAKKTVYLQMNSLKPEDTAVYYCAARGWWSRYGYWGQGTQVTVSS | high polyreactivity |
| QVQLVESGGGLVQAGGSLRLSCAASGFIFTDYAMGWYRQAPGKERELVATISWSGSSTYYADSVKGRFTISRDNEKNTVYLQMNILKPEDTGVYYCAAEFWYTYPYLVDYWRQGTQVTVSS | low polyreactivity |
| QVQLVESGGGLVQAGGSLRLSGAASGSIFYSNAMGWSRQAPGKERELVAAITVRGGSTYYADSVKGRFTISRDNAKNTVYLQMNSLKQEDTAVYYCAAEYVSYSSYIYGYLGQGTQVTVSS | high polyreactivity |
| QVQLVESGGGLVQAGGSLRLSCAASGIIFGWNTMGWYRQAPGKEREFVAAISSSGGSTYADSVKGRFTISRDNAKNTVYLQMNSLKPEDTAVYYCAASKQPGSFEFDYWGQGTQVTVSS | high polyreactivity |
| QVQLVESGGGLVQAGGSLRLSCAASGRTFRYYVMGWYRQAPGKERELVAAISRTGGNTYYADSVKGRFTISRDNAKNTVYLQMNSLKPEDTAVYYCNTVRRPSSWRYDYWGQGTQVTVSS | high polyreactivity |
| QVQLVESGGGLVQAGGSLRLSSAASGSPFIYYVMGWYRQAPGKERELVAAITRSGSTNYADSVKGRFTISRDNAKNTVYLQMNSLKPEDTAVYYCAAERALSRYGYWGHGTQVTVSS | low polyreactivity |
